Results as given in patent US20230218739A1 (SICHUAN CLOVER BIOPHARMACEUTICALS, published 2023).

Biological target: Rabies G-Trimer (CTN-1 Strain) (ectodomain of rabies CTN-1 strain G protein fused in frame to Trimer-Tag) (Rabies virus CTN-1 strain)

B1: NGFR-Fc (nerve growth factor receptor NGFR (p75) fused to Fc) (Fc fusion)
chain: KEACPTGLYTHSGECCKACNLGEGVAQPCGANQTVCEPCLDSVTFSDVVSATEPCKPCTECVGLQSMSAPCVEADDAVCRCAYGYYQDETTGRCEACRVCEAGSGLVFSCQDKQNTVCEECPDGTYSDEANHVDPCLPCTVCEDTERQLRECTRWADAECEEIPGRWITRSTPPEGSDSTAPSTQEPEAPPEQDLIASTVAGVVTTVMGSSQPVVTRGTTDN
Question: B1 was tested. Which Kd did it give?
Answer: Its Kd is 2.92 nM.

Question: And the koff?
Answer: The koff was 2.39e-05 s⁻¹.

Question: What about the kon of the same binder?
Answer: The kon was 8170 M⁻¹ s⁻¹.
